Measured values taken from article PMC9482650, “Quantitative fragmentomics allow affinity mapping of interactomes” (Nature Communications, 2022).

T1: APBA1_2, Q02410
T1 sequence (Q02410 742-832, limits assumed, looked up): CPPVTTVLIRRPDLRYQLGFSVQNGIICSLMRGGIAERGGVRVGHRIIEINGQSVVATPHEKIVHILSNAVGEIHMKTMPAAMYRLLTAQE

T2: APBA2_1, Q99767
T2 sequence (Q99767 563-664, limits assumed, looked up): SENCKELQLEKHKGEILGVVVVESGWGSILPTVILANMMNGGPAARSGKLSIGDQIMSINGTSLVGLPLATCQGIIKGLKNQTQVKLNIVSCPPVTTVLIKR

T3: DFNB31_1, Q9P202
T3 sequence (Q9P202 135-233, limits assumed, looked up): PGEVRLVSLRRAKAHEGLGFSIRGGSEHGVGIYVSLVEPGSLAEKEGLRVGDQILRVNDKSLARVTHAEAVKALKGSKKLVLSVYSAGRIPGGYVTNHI

T4: DFNB31_2, Q9P202
T4 sequence (Q9P202 274-371, limits assumed, looked up): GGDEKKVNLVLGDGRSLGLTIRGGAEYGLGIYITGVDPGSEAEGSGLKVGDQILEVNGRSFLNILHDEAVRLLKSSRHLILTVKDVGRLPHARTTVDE

T5: GRIP1_5, Q9Y3R0
T5 sequence (Q9Y3R0 568-668, limits assumed, looked up): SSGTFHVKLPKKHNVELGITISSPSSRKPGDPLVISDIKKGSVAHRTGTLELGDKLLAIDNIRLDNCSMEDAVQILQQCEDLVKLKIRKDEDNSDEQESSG

T6: HTRA4, P83105
T6 sequence (P83105 378-476, limits assumed, looked up): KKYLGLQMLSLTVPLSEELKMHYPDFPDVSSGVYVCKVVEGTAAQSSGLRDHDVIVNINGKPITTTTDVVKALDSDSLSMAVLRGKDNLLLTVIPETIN

T7: LNX2_3, Q8N448
T7 sequence (Q8N448 463-564, limits assumed, looked up): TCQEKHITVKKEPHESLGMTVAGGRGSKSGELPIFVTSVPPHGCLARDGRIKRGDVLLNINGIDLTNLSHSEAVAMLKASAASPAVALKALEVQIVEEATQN

T8: LRRC7, Q96NW7
T8 sequence (Q96NW7 1440-1537, limits assumed, looked up): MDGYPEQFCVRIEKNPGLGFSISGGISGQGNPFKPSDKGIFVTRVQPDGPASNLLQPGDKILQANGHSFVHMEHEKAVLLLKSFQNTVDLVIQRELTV

T9: NHERF3_1, Q5T2W1
T9 sequence (Q5T2W1 4-100, limits assumed, looked up): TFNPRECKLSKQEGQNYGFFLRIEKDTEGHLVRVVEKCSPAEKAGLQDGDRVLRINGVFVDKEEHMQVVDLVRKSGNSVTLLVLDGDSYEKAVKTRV

T10: PDZD7_3, Q9H5P4
T10 sequence (Q9H5P4 857-944, limits assumed, looked up): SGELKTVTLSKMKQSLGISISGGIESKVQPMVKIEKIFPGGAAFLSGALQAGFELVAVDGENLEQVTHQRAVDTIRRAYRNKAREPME

T11: SIPA1L2, Q9P2F8
T11 sequence (Q9P2F8 945-1036, limits assumed, looked up): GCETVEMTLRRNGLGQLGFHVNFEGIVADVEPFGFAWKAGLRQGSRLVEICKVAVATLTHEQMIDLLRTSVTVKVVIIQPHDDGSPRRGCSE

T12: TIAM2, Q8IVF5
T12 sequence (Q8IVF5 885-986, limits assumed, looked up): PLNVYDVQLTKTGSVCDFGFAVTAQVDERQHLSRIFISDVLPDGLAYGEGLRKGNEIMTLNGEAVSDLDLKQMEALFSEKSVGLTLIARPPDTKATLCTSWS

T13: TJP3_3, O95049
T13 sequence (O95049 375-456, limits assumed, looked up): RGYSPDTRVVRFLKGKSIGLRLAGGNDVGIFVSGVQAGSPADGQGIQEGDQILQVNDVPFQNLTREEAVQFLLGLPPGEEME


Tests used:
Assay in all cases: holdup assay
Design in all cases: key: below the threshold = too weak to quantify, mostly under pKd 3.1 to 4
Conditions in all cases: plain residues with an end cap or a label only (N-terminal biotin on a linker: ado-ado)
APBA1_2, Q02410 = target: T1, APBA1_2, Q02410
APBA2_1, Q99767 = target: T2, APBA2_1, Q99767
CASK, O14936 = target: CASK, O14936
Chain of CASK, O14936 (O14936 487-570): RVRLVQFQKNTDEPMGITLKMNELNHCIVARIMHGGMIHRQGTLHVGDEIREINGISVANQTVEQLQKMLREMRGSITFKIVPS

DFNB31_1, Q9P202 = target: T3, DFNB31_1, Q9P202
DFNB31_2, Q9P202 = target: T4, DFNB31_2, Q9P202
DLG1_1, Q12959 = target: DLG1_1, Q12959
DLG1_2, Q12959 = target: DLG1_2, Q12959
DLG1_3, Q12959 = target: DLG1_3, Q12959
GIPC2, Q8TF65 = target: GIPC2, Q8TF65
Chain of GIPC2, Q8TF65 (Q8TF65 112-203): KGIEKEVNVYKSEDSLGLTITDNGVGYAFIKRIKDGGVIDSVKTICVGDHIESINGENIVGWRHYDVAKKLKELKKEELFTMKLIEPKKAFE

GRIP1_5, Q9Y3R0 = target: T5, GRIP1_5, Q9Y3R0
GRIP2_6, Q9C0E4 = target: GRIP2_6, Q9C0E4
Chain of GRIP2_6, Q9C0E4 (Q9C0E4 648-740): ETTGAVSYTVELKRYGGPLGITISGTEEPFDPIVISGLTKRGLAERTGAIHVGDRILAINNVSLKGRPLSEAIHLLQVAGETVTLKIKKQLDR

HTRA4, P83105 = target: T6, HTRA4, P83105
Inadl_3, Q8NI35 = target: Inadl_3, Q8NI35
Chain of Inadl_3, Q8NI35 (Q8NI35 359-469): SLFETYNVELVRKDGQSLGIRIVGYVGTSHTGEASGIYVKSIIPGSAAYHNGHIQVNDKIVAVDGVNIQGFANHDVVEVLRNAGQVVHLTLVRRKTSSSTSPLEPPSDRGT

LNX2_3, Q8N448 = target: T7, LNX2_3, Q8N448
LRRC7, Q96NW7 = target: T8, LRRC7, Q96NW7
MAGI2_6, Q86UL8 = target: MAGI2_6, Q86UL8
Chain of MAGI2_6, Q86UL8 (Q86UL8 1141-1229): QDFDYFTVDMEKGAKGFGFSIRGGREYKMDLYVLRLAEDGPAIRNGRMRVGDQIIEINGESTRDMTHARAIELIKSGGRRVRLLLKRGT

MAST1, Q9Y2H9 = target: MAST1, Q9Y2H9
Chain of MAST1, Q9Y2H9 (Q9Y2H9 962-1065): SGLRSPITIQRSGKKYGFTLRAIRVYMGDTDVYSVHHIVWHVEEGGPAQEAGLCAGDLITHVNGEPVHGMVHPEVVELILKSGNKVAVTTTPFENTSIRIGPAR

NHERF2_2, Q15599 = target: NHERF2_2, Q15599
Chain of NHERF2_2, Q15599 (Q15599 142-238): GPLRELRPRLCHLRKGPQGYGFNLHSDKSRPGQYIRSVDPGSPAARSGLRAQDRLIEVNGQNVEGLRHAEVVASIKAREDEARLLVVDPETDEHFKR

NHERF3_1, Q5T2W1 = target: T9, NHERF3_1, Q5T2W1
NHERF4_2, Q86UT5 = target: NHERF4_2, Q86UT5
Chain of NHERF4_2, Q86UT5 (Q86UT5 220-308): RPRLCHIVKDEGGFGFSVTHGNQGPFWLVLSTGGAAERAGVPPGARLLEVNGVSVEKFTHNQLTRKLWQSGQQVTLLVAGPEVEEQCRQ

PDZD7_3, Q9H5P4 = target: T10, PDZD7_3, Q9H5P4
SCRIB_1, Q14160 = target: SCRIB_1, Q14160
Chain of SCRIB_1, Q14160 (Q14160 718-814): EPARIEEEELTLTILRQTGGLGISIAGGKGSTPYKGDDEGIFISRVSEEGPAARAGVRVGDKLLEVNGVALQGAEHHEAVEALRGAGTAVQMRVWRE

SIPA1L2, Q9P2F8 = target: T11, SIPA1L2, Q9P2F8
TIAM2, Q8IVF5 = target: T12, TIAM2, Q8IVF5
TJP3_3, O95049 = target: T13, TJP3_3, O95049

Binder | pKd (APBA1_2, Q02410) | pKd (APBA2_1, Q99767) | pKd (CASK, O14936) | pKd (DFNB31_1, Q9P202) | pKd (DFNB31_2, Q9P202) | pKd (DLG1_1, Q12959) | pKd (DLG1_2, Q12959) | pKd (DLG1_3, Q12959) | pKd (GIPC2, Q8TF65) | pKd (GRIP1_5, Q9Y3R0) | pKd (GRIP2_6, Q9C0E4) | pKd (HTRA4, P83105) | pKd (Inadl_3, Q8NI35) | pKd (LNX2_3, Q8N448) | pKd (LRRC7, Q96NW7) | pKd (MAGI2_6, Q86UL8) | pKd (MAST1, Q9Y2H9) | pKd (NHERF2_2, Q15599) | pKd (NHERF3_1, Q5T2W1) | pKd (NHERF4_2, Q86UT5) | also measured
ALPLPQSSTC [IGF1R, P08069] | below the threshold | below the threshold | below the threshold | below the threshold | below the threshold | below the threshold | 3.5 | 3.56 | below the threshold | below the threshold | below the threshold | below the threshold | below the threshold | below the threshold | below the threshold | below the threshold | below the threshold | below the threshold | below the threshold | below the threshold | pKd (PDZD7_3, Q9H5P4): below the threshold; pKd (SCRIB_1, Q14160): 3.8; pKd (SIPA1L2, Q9P2F8): below the threshold; pKd (TIAM2, Q8IVF5): below the threshold; pKd (TJP3_3, O95049): below the threshold
DHLGGGGESM [TNRC6A, Q8NDV7] | below the threshold | below the threshold | below the threshold | below the threshold | below the threshold | below the threshold | below the threshold | below the threshold | below the threshold | below the threshold | below the threshold | below the threshold | below the threshold | below the threshold | below the threshold | below the threshold | 3.91 | below the threshold | below the threshold | below the threshold | pKd (PDZD7_3, Q9H5P4): below the threshold; pKd (SCRIB_1, Q14160): below the threshold; pKd (SIPA1L2, Q9P2F8): below the threshold; pKd (TIAM2, Q8IVF5): below the threshold; pKd (TJP3_3, O95049): below the threshold
IPGKEFDTPL [PLCB1, Q9NQ66] | below the threshold | below the threshold | below the threshold | 4.03 | below the threshold | below the threshold | 3.57 | below the threshold | below the threshold | below the threshold | below the threshold | below the threshold | below the threshold | below the threshold | below the threshold | 3.49 | 4.31 | 5.1 | 5.12 | below the threshold | pKd (PDZD7_3, Q9H5P4): 3.8; pKd (SCRIB_1, Q14160): 3.93; pKd (SIPA1L2, Q9P2F8): below the threshold; pKd (TIAM2, Q8IVF5): below the threshold; pKd (TJP3_3, O95049): below the threshold
REKKFFCTIL [GNG4, P50150] | 4.71 | below the threshold | below the threshold | 4.1 | below the threshold | 4.23 | 4.3 | 4.35 | below the threshold | below the threshold | 4.57 | 4.76 | 4.67 | below the threshold | 3.97 | 4 | 5.2 | 4.52 | 5.43 | below the threshold | pKd (PDZD7_3, Q9H5P4): 5.44; pKd (SCRIB_1, Q14160): 5.33; pKd (SIPA1L2, Q9P2F8): 4.01; pKd (TIAM2, Q8IVF5): 3.98; pKd (TJP3_3, O95049): below the threshold
